{"source": "patent US20110262525A1", "about": "“METHODS OF TREATMENT” (SCHERING CORPORATION, priority 2006, published 2011)", "molecules": {"B1": {"name": "LCF/HCA: fully human anti-IGF1R antibody comprising the mature 19D12/15H12 light chain F (LCF) and mature heavy chain A (HCA) (antibody, V domains shown)", "VH": "EVQLVQSGGGLVHPGGSLRLSCAASGFTFSSFAMHWVRQAPGKGLEWISVIDTRGATYYADSVKGRFTISRDNAKNSLYLQMNSLRAEDMAVYYCARLGNFYYGMDVWGQGTTVTVSS", "VL": "EIVLTQVPDFQSVTPKEKVTITCRASQSIGSSLHWYQQKPDQSPKLLIKYASQSLSGVPSRFSGSGSGTDFTLTINSLEAEDAAAYYCHQSSRLPHTFGGGTKVEIKRT"}}, "key": {"[1]": {"test_system": "OS-33 xenograft (Osteosarcoma)", "assay": "PPTP in vivo xenograft OS-33", "settings": "OS-33 (Osteosarcoma) xenograft, 0.5 mg per mouse ip twice weekly for four weeks", "source_text": "The PPTP includes a molecularly characterized in vitro panel of cell lines (n=27) and in vivo panel of xenografts (n=61) representing most of the common types of childhood solid tumors and childhood ALL (acute lymphoblastic leukemia).\n(§1) Stage 1 testing involved testing an agent across the entire PPTP panel of childhood cancer xenograft lines at its maximum tolerated dose (MTD) or at a dose selected based on PK/PD (pharmacokinetic/pharmacodynamic) studies using adult preclinical models.\n(§2) In vivo solid tumor testing: For each xenograft line, 10 mice bearing subcutaneous (SC) tumors initiated treatment when the tumors were between 0.2-0.5 cm^3 in volume. Two perpendicular tumor diameters were measured at once weekly intervals with digital vernier calipers. Assuming tumors to be spherical, volumes were calculated from the formula (π/6)×d3, where d represented the mean diameter.\nThe antibody was provided to each testing site in coded vials for blinded testing according the PPTP's standard operating procedures.\n(§3) Median Group Response: Each individual mouse in each treatment group was assigned a response score (see Tables above) and a median score for the treatment group was calculated and then each treatment group was assigned an overall response according to the table below.\n(§4) Statistical Methods: Event-free survival (EFS) distributions of each treatment group were compared to the EFS distribution of the respective control group using the exact log rank test. P-values were 2-sided & were not adjusted for multiple comparisons given the exploratory nature of this study. P-values<0.05 were considered to be significant."}, "[2]": {"test_system": "BT-46 xenograft (Medulloblastoma)", "assay": "PPTP in vivo xenograft BT-46", "settings": "BT-46 (Medulloblastoma) xenograft, 0.5 mg per mouse ip twice weekly for four weeks", "protocol": "(§5) The PPTP includes a molecularly characterized in vitro panel of cell lines (n=27) and in vivo panel of xenografts (n=61) representing most of the common types of childhood solid tumors and childhood ALL (acute lymphoblastic leukemia). LCF/HCA anti-IGF1R antibody was tested against the PPTP in vitro panel at concentrations ranging from 0.01 nM to 100 nM; and was tested against the PPTP in vivo panel at a dose of 0.5 mg per mouse administered twice weekly for four weeks via intraperitoneal injection. Three measures of antitumor activity were used: 1) response criteria modeled after the clinical setting; 2) treated-to-control (T/C) tumor volume at day 21; and 3) a time to event (4-fold increase in tumor volume) measure based on the median EFS of treated and control lines (intermediate activity required EFS (event-free survival) T/C>2, and high activity additionally required a net reduction in median tumor volume at the end of the experiment).\nas §1, §2\n(§6) Drug: LCF/HCA was dissolved in 20mM sodium acetate pH 5 buffer containing 150 mM sodium chloride, and administered intraperitoneally twice weekly for 4 consecutive weeks at a dose of 0.5 mg per animal. […]\n(§7) Median Group Response: Each individual mouse in each treatment group was assigned a response score (see Tables above) and a median score for the treatment group was calculated and then each treatment group was assigned an overall response according to the table below. […]"}, "[3]": {"test_system": "OS-2 xenograft (Osteosarcoma)", "assay": "PPTP in vivo xenograft OS-2", "parameters": "key to EFS activity notation (high, intermediate, indeterminate): high (!); intermediate (#); indeterminate (^)", "settings": "OS-2 (Osteosarcoma) xenograft, 0.5 mg per mouse ip twice weekly for four weeks", "protocol": "as §5, §1, §2\n(§8) Drug: LCF/HCA was dissolved in 20mM sodium acetate pH 5 buffer containing 150 mM sodium chloride, and administered intraperitoneally twice weekly for 4 consecutive weeks at a dose of 0.5 mg per animal. The antibody was provided to each testing site in coded vials for blinded testing according the PPTP's standard operating procedures.\nas §3, §4"}, "[4]": {"test_system": "BT-44 xenograft (Ependymoma)", "assay": "PPTP in vivo xenograft BT-44", "parameters": "key to EFS activity notation (high, intermediate, indeterminate): high (!); intermediate (#); indeterminate (^)", "settings": "BT-44 (Ependymoma) xenograft, 0.5 mg per mouse ip twice weekly for four weeks", "protocol": "as §5, §1, §2, §8, §3, §4"}, "[5]": {"test_system": "squamous cell carcinoma cell line SCC 9", "assay": "Cell-Titer Glo proliferation assay, SCC9", "format": "cell-based", "settings": "0.000256-100 nM antibody, 96 hours", "protocol": "Cell proliferation was assayed using a Cell-Titer Glo assay (Promega Corp.; Madison, Wis.). A cell-titer glo assay generates a “glow” luminescent signal in the presence of ATP from viable cells, which can be detected with a plate reader luminometer or CCD imaging device.\nIn this assay, squamous cell carcinoma cells, SCC9, SCC25 and SCC15, were trypsinized, counted and resuspended at 25,000 cells/ml in 10% HI-FBS RPMI containing NEAA, L-Glu, MEM Vitamins and PS. […] (2500 cells) were added to each well BD Falcon 96 well black, clear bottom TC treated plate. Cells were allowed to attach and spread overnight at 37° C. Then, 10% RPMI medium was replaced with […] 2% RPMI, containing the LCF/HCA antibody at the appropriate concentration, the following day. The anti-IGF1R antibody concentrations used in each experiment were 100 nM, 20 nM, 5 nM, 0.8 nM, 0.16 nM, 0.032 nM, 0.0064 nM, 0.00128 nM, and 0.000256 nM. All treatments were prepared in 2% RPMI at 20× concentration and serial diluted. Every test point was prepared in triplicate on separate assay plates. As mentioned above, cell proliferation was measured using the CellTiter-Glo Luminescent Cell Viability Assay (Promega) at 96 hours post treatment. Luminescence was detected on a Wallac 420 Plate Reader with stacker."}, "[6]": {"test_system": "OS-17 xenograft (Osteosarcoma)", "assay": "PPTP in vivo xenograft OS-17", "settings": "OS-17 (Osteosarcoma) xenograft, 0.5 mg per mouse ip twice weekly for four weeks", "protocol": "as §5, §1, §2, §8, §3, §4"}, "[7]": {"test_system": "ALL-3 xenograft (ALL B-precursor)", "assay": "PPTP in vivo leukemia xenograft ALL-3", "settings": "ALL-3 (ALL B-precursor) xenograft; 0.5 mg per mouse ip twice weekly for four weeks", "protocol": "The PPTP includes a molecularly characterized in vitro panel of cell lines (n=27) and in vivo panel of xenografts (n=61) representing most of the common types of childhood solid tumors and childhood ALL (acute lymphoblastic leukemia). LCF/HCA anti-IGF1R antibody was tested against the PPTP in vitro panel at concentrations ranging from 0.01 nM to 100 nM; and was tested against the PPTP in vivo panel at a dose of 0.5 mg per mouse administered twice weekly for four weeks via intraperitoneal injection. […]\nIn vivo acute lymphoblastic leukemia testing: For each xenograft line, 8 mice were inoculated with 3-5×10^6 mononuclear cells purified from the spleens of secondary recipient mice. Engraftment was monitored weekly by flow cytometry, and treatment was initiated when the proportion of human CD45+ cells in the peripheral blood reached 1%. The proportion of human CD45+ cells in the peripheral blood was monitored weekly throughout the course of treatment. […]\nas §7"}, "EW5 xenograft (Ewings)": {"test_system": "EW5 xenograft (Ewings)", "assay": "PPTP in vivo xenograft EW5", "parameters": "key to EFS activity notation (high, intermediate, indeterminate): high (!); intermediate (#); indeterminate (^)", "protocol": "as §5, §1, §2, §8, §3, §4"}, "KT-10 xenograft (Wilms)": {"test_system": "KT-10 xenograft (Wilms)", "assay": "PPTP in vivo xenograft KT-10", "settings": "KT-10 (Wilms) xenograft, 0.5 mg per mouse ip twice weekly for four weeks", "protocol": "as §5, §1, §2, §6, §7"}, "[8]": {"settings": "0.5 mg per mouse ip twice weekly for four weeks"}}, "note": "Marks after values point to notes of the source that are not given here."}
{"molecule": "B1", "values": [{"measurement": "EFS T/C", "setting": "[1]", "value": 0.9}, {"measurement": "Median Final RTV", "setting": "[1]", "value": ">4"}, {"measurement": "Tumor Volume T/C", "setting": "[1]; day 21", "value": 0.79}, {"measurement": "EFS T/C", "setting": "[2]", "value": 1.2}, {"measurement": "Median Final RTV", "setting": "[2]", "value": ">4"}, {"measurement": "Tumor Volume T/C", "setting": "[2]; day 21", "value": 0.69}, {"measurement": "EFS T/C", "setting": "[3]", "value": 2.3}, {"measurement": "EFS activity notation (high, intermediate, indeterminate)", "setting": "[3]", "value": "#"}, {"measurement": "Median Final RTV", "setting": "[3]", "value": ">4#"}, {"measurement": "Overall Group Response", "setting": "[3]", "value": "PD2 (1 < MS ≦ 3)"}, {"measurement": "Tumor Volume T/C", "setting": "[3]; day 21", "value": 0.5}, {"measurement": "EFS T/C", "setting": "[4]", "value": 2.6}, {"measurement": "EFS activity notation (high, intermediate, indeterminate)", "setting": "[4]", "value": "#"}, {"measurement": "Median Final RTV", "setting": "[4]", "value": ">4#"}, {"measurement": "Overall Group Response", "setting": "[4]", "value": "PD2 (1 < MS ≦ 3)"}, {"measurement": "Tumor Volume T/C", "setting": "[4]; day 21", "value": 0.66}, {"measurement": "proliferation of squamous cell carcinoma cell line", "setting": "[5]", "value": "inhibited"}, {"measurement": "EFS T/C", "setting": "[6]", "value": 2}, {"measurement": "Median Final RTV", "setting": "[6]", "value": ">4"}, {"measurement": "Overall Group Response", "setting": "[6]", "value": "PD2 (1 < MS ≦ 3)"}, {"measurement": "Tumor Volume T/C", "setting": "[6]; day 21", "value": 0.55}, {"measurement": "EFS T/C", "setting": "[7]", "value": 0.4}, {"measurement": "Median Final RTV", "setting": "[7]", "value": ">25"}, {"measurement": "EFS T/C", "setting": "EW5 xenograft (Ewings); [8]", "value": "> 2.3"}, {"measurement": "EFS activity notation (high, intermediate, indeterminate)", "setting": "EW5 xenograft (Ewings); [8]", "value": "!"}, {"measurement": "Median Final RTV", "setting": "EW5 xenograft (Ewings); [8]", "value": "0.4!"}, {"measurement": "Overall Group Response", "setting": "EW5 xenograft (Ewings); [8]", "value": "CR* (7 < MS ≦ 9)"}, {"measurement": "Tumor Volume T/C", "setting": "EW5 xenograft (Ewings); day 21, 0.5 mg per mouse ip twice weekly for four weeks", "value": 0.12}, {"measurement": "EFS T/C", "setting": "KT-10 xenograft (Wilms)", "value": 1.3}, {"measurement": "Median Final RTV", "setting": "KT-10 xenograft (Wilms)", "value": ">4"}, {"measurement": "Tumor Volume T/C", "setting": "KT-10 xenograft (Wilms); day 21", "value": 0.43}]}
